Article PMC11162321

Tests used:
[1] = target: F-actin (rabbit skeletal muscle α-actin, filamentous) (rabbit (Oryctolagus cuniculus)) (UniProt P68135); experiment: single-molecule TIRF microscopy
[2] = target: F-actin (rabbit skeletal muscle α-actin, filamentous) (rabbit (Oryctolagus cuniculus)) (UniProt P68135); experiment: fluorescence polarisation
[3] = target: F-actin (rabbit skeletal muscle α-actin, filamentous) (rabbit (Oryctolagus cuniculus)) (UniProt P68135); experiment: other fluorescence titration
[4] = target: F-actin (rabbit skeletal muscle α-actin, filamentous) (rabbit (Oryctolagus cuniculus)) (UniProt P68135); experiment: cryo-EM structure

SipAC (SipA residues 425-685), unlabelled, sequence (P0CL52 425-685): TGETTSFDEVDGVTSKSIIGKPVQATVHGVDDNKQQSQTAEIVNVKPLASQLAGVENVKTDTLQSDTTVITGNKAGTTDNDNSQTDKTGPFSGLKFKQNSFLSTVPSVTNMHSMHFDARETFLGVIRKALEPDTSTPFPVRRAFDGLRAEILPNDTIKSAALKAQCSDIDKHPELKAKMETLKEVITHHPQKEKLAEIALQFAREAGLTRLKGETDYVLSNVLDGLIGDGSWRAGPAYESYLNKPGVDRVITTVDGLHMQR
FM-SipAC (SipA residues 425-685 labelled with fluorescein maleimide), sequence (P0CL52 425-685): as above
Alexa-647-SipAC (SipA residues 425-685 labelled with Alexa Fluor 647 maleimide), sequence (P0CL52 425-685): as above

Substance | Kd [1] | koff [1] | Kd [2] | koff [2] | Kd [3] | stoichiometry N (SipAC per actin) [4]
Alexa-647-SipAC (SipA residues 425-685 labelled with Alexa Fluor 647 maleimide) (from UniProt P0CL52 425-685) (domain or fragment) | 0.1 nM | 0.00038 s⁻¹ | – | – | – | –
FM-SipAC (SipA residues 425-685 labelled with fluorescein maleimide) (from UniProt P0CL52 425-685) (domain or fragment) | – | – | 0.9 nM | 0.00304 s⁻¹ | – | –
SipAC (SipA residues 425-685), unlabelled (from UniProt P0CL52 425-685) (domain or fragment) | – | – | 5 nM | – | 0.18 nM | 0.5
